B1: Human guanylate kinase (hGUK1) (Homo sapiens) (protein)
chain: MSGPRPVVLSGPSGAGKSTLLKRLLQEHSGIFGFSVSHTTRNPRPGEENGKDYYFVTREVMQRDIAAGDFIEHAEFSGNLYGTSKVAVQAVQAMNRICVLDVDLQGVRNIKATDLRPIYISVQPPSLHVLEQRLRQRNTETEESLVKRLAAAQADMESSKEPGLFDVVIINDSLDQAYAELKEALSEEIKKAQRTGA
B2: Hint1 (Homo sapiens) (protein)
chain: MADEIAKAQVARPGGDTIFGKIIRKEIPAKIIFEDDRCLAFHDISPQAPTHFLVIPKKHISQISVAEDDDESLLGHLMIVGKKCAADLGLNKGYRMVVNEGSDGGQSVYHVHLHVLGGRQMHWPPG

Key:
[1] = substrate: Nc1nc2c(ncn2[C@@H]2O[C@H](COP(=O)(O)O)[C@@H](O)[C@H]2O)c(=O)[nH]1; experiment: hGUK1-mediated phosphorylation, coupled spectrophotometric assay; format: biochemical, human; settings: other: hGUK1, 37°C
Hint1 activity assay = substrate: COc1nc(N)nc2c1ncn2[C@@H]1O[C@H](COP(=O)(O)N[C@@H](C)C(=O)O)[C@@H](O)[C@@]1(C)F; experiment: Hint1 activity assay; format: biochemical; settings: other: Hint1, 37 °C, pH 7.2

Row | Protein | Km [1] | kcat [1] | kcat/Km [1] | Km (Hint1 activity assay) | kcat (Hint1 activity assay)
1 | B1 | 19.1 ± 4.5 µM | 74.7 ± 17.6 s⁻¹ | 3.9e+06 M⁻¹ s⁻¹ |  | 
2 | B2 |  |  |  | 445 ± 182 µM | 0.0573 s⁻¹
